Measured values reported in patent US20200188528A1 (FRED HUTCHINSON CANCER RESEARCH CENTER, published 2020).

B1: anti-BACE1 peptide-antibody complex (peptide of SEQ ID NO: 1 fused to the anti-BACE1 antibody heavy chain, SEQ ID NO: 429, assembled with the anti-BACE1 … (antibody)
heavy: not shown
light: DIQMTQSPSSLSASVGDRVTITCRASQDVSTAVAWYQQKPGKAPKLLIYSASFLYSGVPSRFSGSGSGTDFTLTISSLQPEDFATYYCQQFPTYLPTFGQGTKVEIKRTVAAPSVFIFPPSDEQLKSGTASVVCLLNNFYPREAKVQWKVDNALQSGNSQESVTEQDSKDSTYSLSSTLTLSKADYEKHKVYACEVTHQGLSSPVTKSFNRGEC
B2: anti-BACE1 antibody comprising an anti-BACE1 antibody heavy chain of SEQ ID NO: 427 and an anti-BACE1 antibody light chain of SEQ ID NO: 428 (antibody, human IgG1, kappa)
heavy: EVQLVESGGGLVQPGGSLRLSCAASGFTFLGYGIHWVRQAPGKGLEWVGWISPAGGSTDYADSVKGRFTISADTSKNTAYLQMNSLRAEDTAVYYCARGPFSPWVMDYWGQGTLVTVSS
light: B1 light

Target: BACE1 (beta-secretase, beta-site APP cleaving enzyme), endogenous enzyme of HEK/hAPP cells (human, UniProt P56817 46-501)
Sequence (P56817 46-501): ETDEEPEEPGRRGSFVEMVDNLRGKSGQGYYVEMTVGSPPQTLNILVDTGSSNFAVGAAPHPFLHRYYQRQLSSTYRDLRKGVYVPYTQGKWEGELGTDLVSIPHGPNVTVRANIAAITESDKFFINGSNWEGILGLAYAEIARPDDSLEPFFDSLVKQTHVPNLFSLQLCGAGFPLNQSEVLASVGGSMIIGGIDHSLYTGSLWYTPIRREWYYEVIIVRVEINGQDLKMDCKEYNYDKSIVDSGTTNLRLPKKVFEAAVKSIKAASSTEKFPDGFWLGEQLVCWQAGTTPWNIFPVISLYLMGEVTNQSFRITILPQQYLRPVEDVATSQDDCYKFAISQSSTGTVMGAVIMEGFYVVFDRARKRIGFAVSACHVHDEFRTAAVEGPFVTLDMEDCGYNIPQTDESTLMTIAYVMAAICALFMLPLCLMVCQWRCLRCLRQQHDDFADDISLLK
Assay: cell-based or functional assay

Binder | IC50 (read off the curve), Aβ1-40 secretion from HEK/hAPP cells (HTRF, Percent of Cntl)
B1 | ~10 nM
B2 | ~10 nM
